Data set [1] has as its system Y. kristensenii phytase YkAPPA variant YkAPPA-E230G, SEQ ID NO.5. The data set can be described thus: Kinetic parameters of phytase variant with sodium phytate (double reciprocal method). Format: biochemical. The note with it: E230G vs wild phytase. The protocol:
(§1) According to embodiment of the present invention, the phytase variant YkAPPA-E230G with amino acid sequence as set forth in SEQ ID NO.5 is obtained by mutation at the 230th site of glutamic acid into glycine for phytase with amino acid as set forth in SEQ ID NO.1.
(§2) Gene encoding phytase YkAPPA having the nucleotide sequence as set in SEQ ID NO. 2 from Y. kristensenii was performed with site-directed mutagenesis by Overlap PCR to obtain genes encodng the phytase variants YeAPPA-L162G, YeAPPA-L162A, YeAPPA-E230G, YkAPPA-E230A, YkAPPA-E230S, YkAPPA-E230T, YkAPPA-E230D, YkAPPA-E230P, and YkAPPA-E230R, respectively.
(§3) The modified genes encoding the phytase variants were inserted into expression vector pET-22b (+), and transformed into E coli. Strain BL21 (DE3), which were induced by IPTG in 1 mM, cultivated for 5 h at 24° C. to express the phytase, followed by being purified by columns Ni-NTA and DEAE to obtain the mutant protein with the same molecular weight as that of the wild.
(§4) The effect of pepsin on the activity of the purified mutant phytase was determined by detecting the remaining activity after being treated in pH 2 for 2 hours with the different concentrations of pepsin in a mass ratio to phytase ranging from 1/1000 to 1/1. The activity of phytase was detected by ferric molybdenum sulfate blue method by adding 50 ul of phytase solution to 950 ul of sodium phytate substrate in 1.5 mmol/L to react for 30 min at 37° C., followed by adding 1 mL of 10% (m/v) TCA to stop the reaction, and 2 mL of developing color reagent. After developing, OD is measured at 700 nm to calculate the phytase activity.
(§5) The activity of phytase was measured with sodium phytate as substrate in different concentrations of 0.0625 mmol/L, 0.1 mmol/L, 0.125 mmol/L, 0.2 mmol/L, 0.25 mmol/L, 0.5 mmol/L, 1.0 mmol/L and 1.5 mmol/L at the optimal temperature and pH, followed by calculating the values of km and Vmax by double reciprocal method for Michaelis equation, and Kcat according to the theoretical molecular weight. […] And, the catalytic properties including reaction rate, turnover rate and catalytic efficiency of the other phytase variants were similar to those of the wild phytase.

Data set [2] has as its system Y. kristensenii phytase YkAPPA variant YkAPPA-E230A, SEQ ID NO.6. The description is as above. Format: biochemical. The note with it: E230A vs wild phytase. As for the experimental part:
(§6) According to embodiment of the present invention, the phytase variant YkAPPA-E230A with amino acid sequence as set forth in SEQ ID NO.6 is obtained by mutation at the 230th site of glutamic acid into alanine for phytase with amino acid as set forth in SEQ ID NO.1.
as §2, §3, §4, §5

Data set [3] deals with Y. kristensenii phytase YkAPPA variant YkAPPA-L162G, SEQ ID NO.3. Described as above. The note with it: L162G vs wild phytase. The format is biochemical. The protocol: (§7) According to embodiment of the present invention, the phytase variant YkAPPA-L162G with amino acid sequence as set forth in SEQ ID NO.3 is obtained by mutation at the 162th site of Leucine into glycine for phytase with amino acid as set forth in SEQ ID NO.1.
as §2, §3, §4, §5

Data set [4] concerns O=P(O)(O)O[C@H]1[C@H](OP(=O)(O)O)[C@@H](OP(=O)(O)O)[C@H](OP(=O)(O)O)[C@@H](OP(=O)(O)O)[C@H]1OP(=O)(O)O. Described as above. The conditions noted are these: other: E230A, optimal pH 4.5 and temperature 55° C. The format is biochemical, Y. kristensenii. The protocol: as §6, §2, §3, §4, §5
For data set [5] the test system is unchanged. The description is as above. Format: biochemical, Y. kristensenii. The note with it: other: E230D, optimal pH 4.5 and temperature 55° C. As for the experimental part: According to embodiment of the present invention, the phytase variant YkAPPA-E230D with amino acid sequence as set forth in SEQ ID NO.9 is obtained by mutation at the 230th site of glutamic acid into aspartic acid for phytase with amino acid as set forth in SEQ ID NO.1.
as §2, §3, §4, §5

Data set [6] shares this test system. The data set is described as above. Format: biochemical, Y. kristensenii. The conditions noted are these: other: E230G, optimal pH 4.5 and temperature 55° C. The protocol: as §1, §2, §3, §4, §5
Data set [7] shares this test system. Described as above. The format is biochemical, Y. kristensenii. The note with it: other: E230P, optimal pH 4.5 and temperature 60° C. The protocol: According to embodiment of the present invention, the phytase variant YkAPPA-E230P with amino acid sequence as set forth in SEQ ID NO.10 is obtained by mutation at the 230th site of glutamic acid into proline for phytase with amino acid as set forth in SEQ ID NO.1.
as §2, §3, §4, §5

For data set [8] the test system is unchanged. The data set is described as above. The format is biochemical, Y. kristensenii. The conditions noted are these: other: E230R, optimal pH 4.0 and temperature 55° C. As for the experimental part: According to embodiment of the present invention, the phytase variant YkAPPA-E230R with amino acid sequence as set forth in SEQ ID NO.11 is obtained by mutation at the 230th site of […] for phytase with amino acid as set forth in SEQ ID.
as §2, §3, §4, §5

For data set [9] the test system is unchanged. The description is as above. The conditions noted are these: other: E230S, optimal pH 4.5 and temperature 55° C. Format: biochemical, Y. kristensenii. The protocol:
According to embodiment of the present invention, the phytase variant YkAPPA-E230S with amino acid sequence as set forth in SEQ ID NO.7 is obtained by mutation at the 230th site of glutamic acid into serine for phytase with amino acid as set forth in SEQ ID NO.1.
as §2, §3, §4, §5

The test system is the same in data set [10]. The data set is described as above. Format: biochemical, Y. kristensenii. The conditions noted are these: other: E230T, optimal pH 4.5 and temperature 55° C. The protocol:
According to embodiment of the present invention, the phytase variant YkAPPA-E230T with amino acid sequence as set forth in SEQ ID NO.8 is obtained by mutation at the 230th site of glutamic acid into threonine for phytase with amino acid as set forth in SEQ ID NO.1.
as §2, §3, §4, §5

For data set [11] the test system is unchanged. Described as above. Format: biochemical, Y. kristensenii. The conditions noted are these: other: L162G, optimal pH 4.5 and temperature 55° C. The protocol:
as §7, §2, §3, §4, §5

Data set [12] has the same test system. As to the kind of experiment: Kinetic parameters of phytase with sodium phytate (double reciprocal method). The conditions noted are these: other: wild type, optimal pH 4.5 and temperature 55° C. The format is biochemical, Y. kristensenii. The protocol: as §2, §3, §4, §5

We go through ten molecules from patent US11028377B2, “Phytase variants YkAPPA having improved pepsin resistance and increased catalytic efficiency” (priority 2017, dated 2021).

For the molecule `O=P(O)(O)O[C@H]1[C@H](OP(=O)(O)O)[C@@H](OP(=O)(O)O)[C@H](OP(=O)(O)O)[C@@H](OP(=O)(O)O)[C@H]1OP(=O)(O)O` [sodium phytate], in data set [1], the “Reaction rate Vmax relative to the wild phytase” value came to 1.9 times, the “catalytic efficiency Kcat/km relative to the wild phytase” value was found to be 2.1 times and the “conversion rate Kcat relative to the wild phytase” value was found to be 1.9 times. Moreover, in data set [2], the “Reaction rate Vmax relative to the wild phytase” value was found to be 1.3 times, the “catalytic efficiency relative to the wild phytase” value turned out to be 2.1 times and the “conversion rate Kcat relative to the wild phytase” value is reported as 1.3 times. In data set [3], the “Reaction rate Vmax relative to the wild phytase” value is on record as 1.6 to 1.8 times, the “catalytic efficiency relative to the wild phytase” value is recorded as 2.1 times and the “conversion rate Kcat relative to the wild phytase” value was 1.6 to 1.8 times.

In the case of “Y. kristensenii phytase YkAPPA variant YkAPPA-E230A, SEQ ID NO.6 (Yersinia kristensenii; E230A)”, in [4], the Km – broadly, the substrate concentration at which the rate is half of its maximum – worked out at 90 µM; the Vmax (commonly the top rate of the reaction or transport when substrate is in excess) is 4530 µmol/min/mg; the kcat (usually the maximal rate divided by the concentration of active sites) came out at 3470 s⁻¹; the kcat/Km (as a rule, the turnover number divided by the Michaelis constant) was determined as 3.77e+07 M⁻¹ s⁻¹.

On to “Y. kristensenii phytase YkAPPA variant YkAPPA-E230D, SEQ ID NO.9 (Yersinia kristensenii; E230D)”, for which, in data set [5], the Km amounted to 90 µM, the Vmax was 3590 µmol/min/mg, the catalytic constant (kcat) came to 2740 s⁻¹ and the kcat/Km worked out at 2.91e+07 M⁻¹ s⁻¹.

Take “Y. kristensenii phytase YkAPPA variant YkAPPA-E230G, SEQ ID NO.5 (Yersinia kristensenii; E230G)”: in [6], the Km was determined as 100 µM, the Vmax turned out to be 7100 µmol/min/mg, the kcat stood at 5430 s⁻¹ and the kcat/Km is 6.17e+07 M⁻¹ s⁻¹.

With “Y. kristensenii phytase YkAPPA variant YkAPPA-E230P, SEQ ID NO.10 (Yersinia kristensenii; E230P)”, in data set [7], the Km was 80 µM, the maximum rate (Vmax) came to 3180 µmol/min/mg, the kcat came out at 2430 s⁻¹ and the kcat/Km came to 2.98e+07 M⁻¹ s⁻¹.

“Y. kristensenii phytase YkAPPA variant YkAPPA-E230R, SEQ ID NO.11 (Yersinia kristensenii; E230R)”: in data set [8], the Michaelis-Menten constant (Km) amounted to 110 µM, the maximum rate (Vmax) is 4330 µmol/min/mg, the kcat stood at 3310 s⁻¹ and the specificity constant (kcat/Km) was found to be 2.99e+07 M⁻¹ s⁻¹.

For the molecule “Y. kristensenii phytase YkAPPA variant YkAPPA-E230S, SEQ ID NO.7 (Yersinia kristensenii; E230S)”, in [9], the Michaelis constant (Km) came out at 90 µM, the maximum rate (Vmax) stood at 3800 µmol/min/mg, the catalytic constant (kcat) amounted to 2900 s⁻¹ and the catalytic efficiency (kcat/Km) is 2.93e+07 M⁻¹ s⁻¹.

With “Y. kristensenii phytase YkAPPA variant YkAPPA-E230T, SEQ ID NO.8 (Yersinia kristensenii; E230T)”, in data set [10], the Km amounted to 80 µM, the Vmax was found to be 3250 µmol/min/mg, the kcat worked out at 2480 s⁻¹ and the catalytic efficiency (kcat/Km) was found to be 2.98e+07 M⁻¹ s⁻¹.

On to “Y. kristensenii phytase YkAPPA variant YkAPPA-L162G, SEQ ID NO.3 (Yersinia kristensenii; L162G)”, for which, in data set [11], the Michaelis constant (Km) was found to be 90 µM, the Vmax was 6320 µmol/min/mg, the turnover number (kcat) came out at 4840 s⁻¹ and the catalytic efficiency (kcat/Km) turned out to be 4.61e+07 M⁻¹ s⁻¹.

For the molecule “Yersinia (Y.) kristensenii phytase YkAPPA, wild type, SEQ ID NO.1 (Yersinia kristensenii)”, in [12], the Michaelis-Menten constant (Km) came to 90 µM, the maximum rate (Vmax) worked out at 3550 µmol/min/mg, the catalytic constant (kcat) was 2720 s⁻¹ and the kcat/Km amounted to 2.94e+07 M⁻¹ s⁻¹.
